Data taken from US10533167.

Key:
Test in all cases: cell-based or functional assay
[1] = molecular target: FUSN-Cry2olig (N-terminal IDR of FUS fused to mCherry-labeled Cry2olig, Cry2 E490G) (human; Arabidopsis thaliana) (UniProt Q96524)
[2] = molecular target: optoDDX4 (N-terminal IDR of Ddx4 fused to mCherry-labeled Cry2WT) (human; Arabidopsis thaliana) (UniProt Q96524)
[3] = molecular target: optoFUS (N-terminal IDR of FUS fused to mCherry-labeled Cry2 PHR, Cry2WT) (human; Arabidopsis thaliana) (UniProt Q96524)

With “FUSN-Cry2olig (N-terminal IDR of FUS fused to mCherry-labeled Cry2olig, Cry2 E490G) (from UniProt Q96524 1-498)” the saturation concentration for light-activated clustering, relative to optoFUS (fold lower than optoFUS) [1] was 5.

“optoDDX4 (N-terminal IDR of Ddx4 fused to mCherry-labeled Cry2WT) (from UniProt Q96524 1-498)” was tested, and the saturation concentration (Csat) for light-activated phase separation, relative to optoFUS (fold lower than optoFUS) [2] was 2.

In the case of “optoFUS (N-terminal IDR of FUS fused to mCherry-labeled Cry2 PHR, Cry2WT) (from UniProt Q96524 1-498)”, the saturation concentration (Csat) for light-activated phase separation in NIH 3T3 cells [3] is reported as 1.4 µM.
